We go through six molecules from publication PMC3884107 (PLoS ONE, 2013).

Experiment [1] concerns the target T1, human RON on 3T3-hRON cells (human, UniProt Q04912-1 25-1400).
T1 construct: human RON (Recepteur d'Origine Nantais, MST1R) expressed on the surface of 3T3-hRON cells; In the functional rows this molecule also stands for human RON on A2780-hRON, BxPC3, HCT15 and HPC5 cells; also called Recepteur d'Origine Nantais; MST1R; source: 3T3 cells stably transfected with human RON (3T3-hRON), on cells
Nature of the experiment: radioligand binding; competition of 125I-MSP with unlabeled MSP on 3T3-hRON cells, 4 h on ice. The conditions noted are these: one partner purified.

The target of experiment [2] is T1, human RON on 3T3-hRON cells. Nature of the experiment: radioligand binding; competition of 125I-MSP with unlabeled MSP (from 5 µM) on 150,000 3T3-hRON cells, 2 h at room temperature; DMEM, 1% BSA, 325 nM human IgG, 50 mM HEPES pH 7.2, 0.1% sodium azide; Scatchard analysis. Particulars: one partner purified.
The target in experiment [3] is T2, RON-Fc (human RON Sema, PSI and IPT1 domains, E25-M682, Fc fusion with human IgG1) (human, UniProt Q04912-1 25-682).
T2 construct: human RON (Recepteur d'Origine Nantais, MST1R), Sema, PSI and IPT1 domains, E25-M682; also called RON-Fc fusion protein; source: CHO cells; purified (MabSelect Sure, SEC)
T2 sequence (looked up): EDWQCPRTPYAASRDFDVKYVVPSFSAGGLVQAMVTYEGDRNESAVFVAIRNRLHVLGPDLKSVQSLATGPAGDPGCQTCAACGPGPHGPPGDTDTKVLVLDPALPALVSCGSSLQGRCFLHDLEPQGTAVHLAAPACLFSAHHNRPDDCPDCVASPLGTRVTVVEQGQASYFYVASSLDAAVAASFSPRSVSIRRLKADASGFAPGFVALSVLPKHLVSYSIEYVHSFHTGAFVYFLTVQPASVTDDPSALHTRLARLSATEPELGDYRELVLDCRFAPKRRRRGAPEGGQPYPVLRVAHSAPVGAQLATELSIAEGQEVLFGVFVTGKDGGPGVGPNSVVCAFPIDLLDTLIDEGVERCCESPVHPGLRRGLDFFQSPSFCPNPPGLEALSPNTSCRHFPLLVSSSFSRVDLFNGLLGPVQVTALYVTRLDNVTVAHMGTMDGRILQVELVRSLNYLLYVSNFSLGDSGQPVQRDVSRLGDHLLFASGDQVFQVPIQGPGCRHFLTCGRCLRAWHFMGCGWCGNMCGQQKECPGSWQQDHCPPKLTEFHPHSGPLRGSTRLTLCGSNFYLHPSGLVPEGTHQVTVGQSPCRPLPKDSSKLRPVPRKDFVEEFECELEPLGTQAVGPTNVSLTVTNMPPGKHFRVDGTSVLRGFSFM
Nature of the experiment: ELISA; RON-Fc (1 µg/ml) captured on plate-coated rabbit anti-human IgG Fc; MSP 1000 nM-0.2 pM, 1 h, room temperature; 50 mM HEPES pH 7.2, 150 mM NaCl, 5 mM CaCl2, 1% BSA, 0.1% Tween-20; bound MSP detected with anti-His-HRP; 4-parameter fit. Particulars: both partners purified. A general note: In an ELISA, binding on a coated surface is turned into a signal by an enzyme label.

In experiment [4] the target is T2, RON-Fc (human RON Sema, PSI and IPT1 …). In words: BLI; RON-Fc (10 µg/ml) loaded on anti-human IgG Fc biosensors, Octet RED384; MSP, MSP β or scMSP 75-4.7 nM, 400 s association, 400 s dissociation, 30°C; global 1:1 fit, KD = koff/kon. The conditions noted are these: both partners purified.
Experiment [5] has as its target T3, RON Sema/PSI (human RON residues E25-P568) (human, UniProt Q04912-1 25-568).
T3 construct: human RON (Recepteur d'Origine Nantais, MST1R), Sema and PSI domains, E25-P568; Expressed with an N-terminal gp67 secretion signal; source: Trichoplusia ni insect cells, baculovirus; purified from the media (Ni-NTA, SEC)
T3 sequence (looked up): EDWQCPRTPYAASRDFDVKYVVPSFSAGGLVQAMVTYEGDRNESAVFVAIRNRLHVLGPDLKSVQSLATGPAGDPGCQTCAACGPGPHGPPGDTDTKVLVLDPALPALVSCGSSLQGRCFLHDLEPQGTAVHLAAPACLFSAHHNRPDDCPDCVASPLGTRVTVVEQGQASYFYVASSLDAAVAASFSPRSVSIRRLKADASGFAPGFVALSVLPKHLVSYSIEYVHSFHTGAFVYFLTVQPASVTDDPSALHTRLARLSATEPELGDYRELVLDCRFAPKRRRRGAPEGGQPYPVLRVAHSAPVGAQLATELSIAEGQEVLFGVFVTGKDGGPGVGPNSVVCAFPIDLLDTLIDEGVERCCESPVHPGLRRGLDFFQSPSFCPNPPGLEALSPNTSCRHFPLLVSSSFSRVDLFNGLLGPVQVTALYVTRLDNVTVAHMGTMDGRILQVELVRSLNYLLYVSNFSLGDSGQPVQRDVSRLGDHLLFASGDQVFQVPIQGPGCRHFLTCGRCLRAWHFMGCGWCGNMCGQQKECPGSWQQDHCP
Nature of the experiment: SPR; RON Sema/PSI amine-coupled to a CM5 chip, Biacore 3000; MSP, MSP β or scMSP injected 500-3.9 nM in HBS-P (10 mM HEPES pH 7.5, 150 mM NaCl, 0.005% P20), 25°C, 30 µl/min; global 1:1 Langmuir fit, KD = koff/kon. Particulars: both partners purified.

Experiment [6] has as its target T2, RON-Fc (human RON Sema, PSI and IPT1 …). Nature of the experiment: SPR; RON-Fc captured (50-100 RU) on immobilised anti-human Fc surfaces, CM5 chip, Biacore 3000; MSP, MSP β or scMSP injected 500-3.9 nM in HBS-P (10 mM HEPES pH 7.5, 150 mM NaCl, 0.005% P20), 25°C, 30 µl/min; global 1:1 Langmuir fit, KD = koff/kon. Particulars: both partners purified.

B1: MSP 689R (active two-chain macrophage stimulating protein; Q19-G711; C672A) (ligand, human)
chain 1: QRSPLNDFQVLRGTELQHLLHAVVPGPWQEDVADAEECAGRCGPLMDCRAFHYNVSSHGCQLLPWTQHSPHTRLRRSGRCDLFQKKDYVRTCIMNNGVGYRGTMATTVGGLPCQAWSHKFPNDHKYTPTLRNGLEENFCRNPDGDPGGPWCYTTDPAVRFQSCGIKSCREAACVWCNGEEYRGAVDRTESGRECQRWDLQHPHQHPFEPGKFLDQGLDDNYCRNPDGSERPWCYTTDPQIEREFCDLPRCGSEAQPRQEATTVSCFRGKGEGYRGTANTTTAGVPCQRWDAQIPHQHRFTPEKYACKDLRENFCRNPDGSEAPWCFTLRPGMRAAFCYQIRRCTDDVRPQDCYHGAGEQYRGTVSKTRKGVQCQRWSAETPHKPQFTFTSEPHAQLEENFCRNPDGDSHGPWCYTMDPRTPFDYCALRRCADDQPPSILDPPDQVQFEKCGKRVDRLDQRRSKLR
chain 2: VVGGHPGNSPWTVSLRNRQGQHFCGGSLVKEQWILTARQCFSSCHMPLTGYEVWLGTLFQNPQHGEPSLQRVPVAKMVCGPSGSQLVLLKLERSVTLNQRVALICLPPEWYVVPPGTKCEIAGWGETKGTGNDTVLNVALLNVISNQECNIKHRGRVRESEMCTEGLLAPVGACEGDYGGPLACFTHNAWVLEGIIIPNRVCARSRWPAVFTRVSVFVDWIHKVMRLG
notes: MSP alpha-chain of human macrophage stimulating protein: from Q19 of the pro-MSP construct to R483 (cleavage between R483 and V484); disulfide-linked to the beta-chain; Made as single-chain pro-MSP (Q19-G711; C672A; C-terminal 6-His) and cleaved by sHepsin; For the radioligand assay part of the protein was iodinated with 125I (Iodogen); also called HGFL; MST1; source: CHO cells, transiently …
Regarding B1, the equilibrium dissociation constant (Kd) in experiment [1] stood at 23 nM; in experiment [2], 12.6 nM. Besides, a half-maximal response in experiment [3] (EC50) required 0.1 nM.

B2: MSP β 689R (V484-G711; C588S, C672A) (domain or fragment, human, UniProt P26927 484-711, looked up)
chain: VVGGHPGNSPWTVSLRNRQGQHFCGGSLVKEQWILTARQCFSSCHMPLTGYEVWLGTLFQNPQHGEPSLQRVPVAKMVCGPSGSQLVLLKLERSVTLNQRVALISLPPEWYVVPPGTKCEIAGWGETKGTGNDTVLNVALLNVISNQECNIKHRGRVRESEMCTEGLLAPVGACEGDYGGPLACFTHNAWVLEGIIIPNRVCARSRWPAVFTRVSVFVDWIHKVMRLG
notes: source: CHO cells, transiently transfected, secreted; purified (Ni-NTA, SEC); not shown: His6, C-terminal, kept
For B2, the equilibrium dissociation constant (Kd) in experiment [4] amounted to 7.5 nM; in experiment [5], 6.6 nM; in experiment [6], 9.6 nM. Besides, the koff in experiment [4] amounted to 0.0035 s⁻¹; in experiment [5], 0.0184 s⁻¹; in experiment [6] it was 0.0175 s⁻¹. For the same molecule, the kon in experiment [4] turned out to be 470000 M⁻¹ s⁻¹; in experiment [5], 2.71e+06 M⁻¹ s⁻¹; in experiment [6], 1.81e+06 M⁻¹ s⁻¹. The molecule also came in with an EC50 in experiment [3] of 0.05 nM.

B3: MSP β 672C 689R (V484-G711; C588S, without C672A) (domain or fragment, human, UniProt P26927 484-711, looked up)
chain: VVGGHPGNSPWTVSLRNRQGQHFCGGSLVKEQWILTARQCFSSCHMPLTGYEVWLGTLFQNPQHGEPSLQRVPVAKMVCGPSGSQLVLLKLERSVTLNQRVALISLPPEWYVVPPGTKCEIAGWGETKGTGNDTVLNVALLNVISNQECNIKHRGRVRESEMCTEGLLAPVGACEGDYGGPLACFTHNCWVLEGIIIPNRVCARSRWPAVFTRVSVFVDWIHKVMRLG
notes: source: CHO cells, transiently transfected, secreted; purified (Ni-NTA, SEC)
As to B3, in experiment [6], binding was characterised by a dissociation constant (Kd) of 6.3 nM, the koff is 0.0066 s⁻¹ and the kon was 860000 M⁻¹ s⁻¹.

B4: MSP β 689C (V484-G711; C588S, C672A; 689C) (domain or fragment, human, UniProt P26927 484-711, looked up)
chain: VVGGHPGNSPWTVSLRNRQGQHFCGGSLVKEQWILTARQCFSSCHMPLTGYEVWLGTLFQNPQHGEPSLQRVPVAKMVCGPSGSQLVLLKLERSVTLNQRVALISLPPEWYVVPPGTKCEIAGWGETKGTGNDTVLNVALLNVISNQECNIKHRGRVRESEMCTEGLLAPVGACEGDYGGPLACFTHNAWVLEGIIIPNRVCARSCWPAVFTRVSVFVDWIHKVMRLG
notes: as for B2
In experiment [4], B4 returned a Kd of 9.1 nM, a koff of 0.0093 s⁻¹ and a kon of 1.05e+06 M⁻¹ s⁻¹. Moreover, in experiment [5], the Kd turned out to be 9.1 nM, the koff worked out at 0.0134 s⁻¹ and the kon was 1.46e+06 M⁻¹ s⁻¹. In experiment [3], the EC50 was 0.1 nM. Besides, in experiment [6], the affinity, expressed as Kd, was 9 nM; the koff worked out at 0.0419 s⁻¹; the kon was found to be 4.42e+06 M⁻¹ s⁻¹.

B5: MSP 689C (active two-chain macrophage stimulating protein; Q19-G711; C672A; 689C) (ligand, human)
chain 1: QRSPLNDFQVLRGTELQHLLHAVVPGPWQEDVADAEECAGRCGPLMDCRAFHYNVSSHGCQLLPWTQHSPHTRLRRSGRCDLFQKKDYVRTCIMNNGVGYRGTMATTVGGLPCQAWSHKFPNDHKYTPTLRNGLEENFCRNPDGDPGGPWCYTTDPAVRFQSCGIKSCREAACVWCNGEEYRGAVDRTESGRECQRWDLQHPHQHPFEPGKFLDQGLDDNYCRNPDGSERPWCYTTDPQIEREFCDLPRCGSEAQPRQEATTVSCFRGKGEGYRGTANTTTAGVPCQRWDAQIPHQHRFTPEKYACKDLRENFCRNPDGSEAPWCFTLRPGMRAAFCYQIRRCTDDVRPQDCYHGAGEQYRGTVSKTRKGVQCQRWSAETPHKPQFTFTSEPHAQLEENFCRNPDGDSHGPWCYTMDPRTPFDYCALRRCADDQPPSILDPPDQVQFEKCGKRVDRLDQRRSKLR
chain 2: VVGGHPGNSPWTVSLRNRQGQHFCGGSLVKEQWILTARQCFSSCHMPLTGYEVWLGTLFQNPQHGEPSLQRVPVAKMVCGPSGSQLVLLKLERSVTLNQRVALICLPPEWYVVPPGTKCEIAGWGETKGTGNDTVLNVALLNVISNQECNIKHRGRVRESEMCTEGLLAPVGACEGDYGGPLACFTHNAWVLEGIIIPNRVCARSCWPAVFTRVSVFVDWIHKVMRLG
notes: MSP alpha-chain of human macrophage stimulating protein: from Q19 of the pro-MSP construct to R483 (cleavage between R483 and V484); disulfide-linked to the beta-chain; Made as single-chain pro-MSP (Q19-G711; C672A; C-terminal 6-His) and cleaved by sHepsin; For the radioligand assay part of the protein was iodinated with 125I (Iodogen); source: CHO cells, transiently transfected, secreted; …
In the case of B5, the Kd came to 25.7 nM in experiment [1] and 13 nM in experiment [2]. Moreover, in experiment [3], it took 0.2 nM to reach a half-maximal effect (EC50).

B6: MSP β 672C 689C (V484-G711; C588S, without C672A; 689C) (domain or fragment, human, UniProt P26927 484-711, looked up)
chain: VVGGHPGNSPWTVSLRNRQGQHFCGGSLVKEQWILTARQCFSSCHMPLTGYEVWLGTLFQNPQHGEPSLQRVPVAKMVCGPSGSQLVLLKLERSVTLNQRVALISLPPEWYVVPPGTKCEIAGWGETKGTGNDTVLNVALLNVISNQECNIKHRGRVRESEMCTEGLLAPVGACEGDYGGPLACFTHNCWVLEGIIIPNRVCARSCWPAVFTRVSVFVDWIHKVMRLG
notes: as for B3
Regarding B6, in experiment [6], the Kd is 9.7 nM, the koff amounted to 0.0075 s⁻¹ and the kon was found to be 770000 M⁻¹ s⁻¹.

By Kd is commonly meant the concentration at which binding is half-saturated. A higher Kd goes with a looser complex. In general, EC50 refers to the concentration at which the effect is half-maximal. Broadly, the koff is the first-order rate constant of dissociation. Lower therefore signals slow dissociation. By kon is commonly meant the rate constant with which the complex forms. Low readings indicate slow association, high ones fast association.
